Reference: patent publication US20250320281A1

How the values were obtained:
Assay in all cases: cell-based or functional assay
[1] = target: HIV-1 Env of isolate 92TH021 (pseudovirus) (HIV-1)
[2] = target: HIV-1 Env of isolate JR-CSF (pseudovirus) (HIV-1) (UniProt P20871)
[3] = target: HIV-1 Env of isolate MGRM-C-026 (pseudovirus) (HIV-1)
[4] = target: HIV-1 Env of isolate MG RM-D-011 (HIV-1)
[5] = target: HIV-1 Env of isolate MG RM-D-012 (HIV-1)
[6] = target: HIV-1 Env of isolate MG RM-D-013 (HIV-1)
[7] = target: HIV-1 Env of isolate MG RM-D-014 (HIV-1)
[8] = target: HIV-1 Env of isolate MG RM-D-016 (HIV-1)
[9] = target: HIV-1 Env of isolate MG RM-D-018 (HIV-1)
[10] = target: HIV-1 Env of isolate MG RM-D-019 (HIV-1)
[11] = target: HIV-1 Env of isolate MG RM-D-020 (HIV-1)
[12] = target: HIV-1 Env of isolate MG RM-D-021 (HIV-1)
[13] = target: HIV-1 Env of isolate MG RM-D-022 (HIV-1)
[14] = target: HIV-1 Env of isolate MG RM-D-024 (HIV-1)
[15] = target: HIV-1 Env of isolate MG RM-D-026 (HIV-1)
[16] = target: HIV-1 Env of isolate MG RM-D-028 (HIV-1)
[17] = target: HIV-1 Env of isolate MG RM-D-029 (HIV-1)
[18] = target: HIV-1 Env of isolate MGRM-F1-004 (HIV-1)
[19] = target: HIV-1 Env of isolate MGRM-F1-006 (HIV-1)
[20] = target: HIV-1 Env of isolate MGRM-F1-008 (HIV-1)
[21] = target: HIV-1 Env of isolate MGRM-F1-010 (HIV-1)
[22] = target: HIV-1 Env of isolate MGRM-F1-012 (HIV-1)
[23] = target: HIV-1 Env of isolate MGRM-F1-013 (HIV-1)
[24] = target: HIV-1 Env of isolate MGRM-F1-014 (HIV-1)
[25] = target: HIV-1 Env of isolate MGRM-F1-015 (HIV-1)
[26] = target: HIV-1 Env of isolate MGRM-F1-016 (HIV-1)
[27] = target: HIV-1 Env of isolate MGRM-F1-017 (HIV-1)
[28] = target: HIV-1 Env of isolate MGRM-F1-018 (HIV-1)
[29] = target: HIV-1 Env of isolate MGRM-F1-020 (HIV-1)
[30] = target: HIV-1 Env of isolate MGRM-F1-021 (HIV-1)
[31] = target: HIV-1 Env of isolate MGRM-F1-022 (HIV-1)
[32] = target: HIV-1 Env of isolate MGRM-F1-023 (HIV-1)
[33] = target: HIV-1 Env of pseudovirus MGRM-AE-007 (subtype AE) (HIV-1)
[34] = target: HIV-1 Env of pseudovirus MGRM-AE-008 (subtype AE) (HIV-1)
[35] = target: HIV-1 Env of pseudovirus MGRM-AG-001 (subtype AG) (HIV-1)
[36] = target: HIV-1 Env of pseudovirus MGRM-AG-002 (subtype AG) (HIV-1)
[37] = target: HIV-1 Env of pseudovirus MGRM-AG-003 (subtype AG) (HIV-1)
[38] = target: HIV-1 Env of pseudovirus MGRM-AG-005 (subtype AG) (HIV-1)
[39] = target: HIV-1 Env of pseudovirus MGRM-AG-006 (subtype AG) (HIV-1)
[40] = target: HIV-1 Env of pseudovirus MGRM-AG-008 (subtype AG) (HIV-1)
[41] = target: HIV-1 Env of pseudovirus MGRM-AG-009 (subtype AG) (HIV-1)
[42] = target: HIV-1 Env of pseudovirus MGRM-AG-011 (subtype AG) (HIV-1)
[43] = target: HIV-1 Env of pseudovirus MGRM-AG-012 (subtype AG) (HIV-1)
[44] = target: HIV-1 Env of pseudovirus MGRM-AG-013 (subtype AG) (HIV-1)

PGT-144 (4970_K22) (antibody), sequence (VH): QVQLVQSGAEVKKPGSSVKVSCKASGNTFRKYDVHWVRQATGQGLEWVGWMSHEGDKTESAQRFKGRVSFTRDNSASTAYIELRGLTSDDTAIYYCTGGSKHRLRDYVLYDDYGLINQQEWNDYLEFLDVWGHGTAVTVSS
PGT-144 (4970_K22) (antibody), sequence (VL): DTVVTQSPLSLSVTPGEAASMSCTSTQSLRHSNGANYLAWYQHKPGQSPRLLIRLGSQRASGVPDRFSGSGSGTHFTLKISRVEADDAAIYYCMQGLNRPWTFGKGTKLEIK
PGT-143 (4980_N08) (antibody), sequence (VH): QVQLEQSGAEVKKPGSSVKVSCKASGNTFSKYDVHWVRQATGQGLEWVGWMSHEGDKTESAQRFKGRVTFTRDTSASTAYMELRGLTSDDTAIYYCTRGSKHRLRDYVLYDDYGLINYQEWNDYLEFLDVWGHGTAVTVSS
PGT-143 (4980_N08) (antibody), sequence (VL): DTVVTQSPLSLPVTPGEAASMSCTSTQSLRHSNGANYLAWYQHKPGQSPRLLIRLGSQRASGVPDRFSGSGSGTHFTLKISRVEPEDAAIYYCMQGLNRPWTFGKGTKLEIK

5117_E22 (labelled PGT-133 in Table 26) (antibody)
Primary Neutralization Index (B cell culture supernatant) [1]: 42.5
Primary Neutralization Index (B cell culture supernatant) [2]: 3.6
Primary Neutralization Index (B cell culture supernatant) [3]: 3.4

PGT-143 (4980_N08) (antibody)
IC50 [4]: > 50 µg/mL
IC50 [5]: > 50 µg/mL
IC50 [6]: 0.386 µg/mL
IC50 [7]: 0.009 µg/mL
IC50 [8]: > 50 µg/mL
IC50 [9]: > 50 µg/mL
IC50 [10]: 0.277 µg/mL
IC50 [11]: > 50 µg/mL
IC50 [12]: > 50 µg/mL
IC50 [13]: > 50 µg/mL
IC50 [14]: > 50 µg/mL
IC50 [15]: 44.6 µg/mL
IC50 [16]: > 50 µg/mL
IC50 [17]: 0.2 µg/mL
IC50 [18]: 0.036 µg/mL
IC50 [19]: 12.3 µg/mL
IC50 [20]: 0.189 µg/mL
IC50 [21]: > 50 µg/mL
IC50 [22]: > 50 µg/mL
IC50 [23]: 0.013 µg/mL
IC50 [24]: 0.001 µg/mL
IC50 [25]: > 50 µg/mL
IC50 [26]: > 50 µg/mL
IC50 [27]: 26.3 µg/mL
IC50 [28]: 0.701 µg/mL
IC50 [29]: 0.98 µg/mL
IC50 [30]: > 50 µg/mL
IC50 [31]: 0.082 µg/mL
IC50 [32]: 0.972 µg/mL
IC50, pseudovirus neutralization [33]: 13.6 µg/mL
IC50, pseudovirus neutralization [34]: 0.135 µg/mL
IC50, pseudovirus neutralization [35]: 18.9 µg/mL
IC50, pseudovirus neutralization [36]: 0.076 µg/mL
IC50, pseudovirus neutralization [37]: > 50 µg/mL
IC50, pseudovirus neutralization [38]: 1.11 µg/mL
IC50, pseudovirus neutralization [39]: > 50 µg/mL
IC50, pseudovirus neutralization [40]: 34 µg/mL
IC50, pseudovirus neutralization [41]: > 50 µg/mL
IC50, pseudovirus neutralization [42]: 0.156 µg/mL
IC50, pseudovirus neutralization [43]: > 50 µg/mL
IC50, pseudovirus neutralization [44]: > 50 µg/mL

5113_D22 (labelled PGT-132 in Table 26) (antibody)
Primary Neutralization Index (B cell culture supernatant) [1]: 51
Primary Neutralization Index (B cell culture supernatant) [2]: 3
Primary Neutralization Index (B cell culture supernatant) [3]: 6

PGT-144 (4970_K22) (antibody)
IC50 [4]: > 50 µg/mL
IC50 [5]: > 50 µg/mL
IC50 [6]: > 50 µg/mL
IC50 [7]: 0.113 µg/mL
IC50 [8]: > 50 µg/mL
IC50 [9]: > 50 µg/mL
IC50 [10]: > 50 µg/mL
IC50 [11]: > 50 µg/mL
IC50 [12]: > 50 µg/mL
IC50 [13]: > 50 µg/mL
IC50 [14]: > 50 µg/mL
IC50 [15]: > 50 µg/mL
IC50 [16]: > 50 µg/mL
IC50 [17]: 0.459 µg/mL
IC50 [18]: 0.105 µg/mL
IC50 [19]: 20.6 µg/mL
IC50 [20]: 0.507 µg/mL
IC50 [21]: > 50 µg/mL
IC50 [22]: > 50 µg/mL
IC50 [23]: 0.509 µg/mL
IC50 [24]: 0.014 µg/mL
IC50 [25]: > 50 µg/mL
IC50 [26]: > 50 µg/mL
IC50 [27]: > 50 µg/mL
IC50 [28]: > 50 µg/mL
IC50 [29]: 8.93 µg/mL
IC50 [30]: > 50 µg/mL
IC50 [31]: 0.382 µg/mL
IC50 [32]: 1.16 µg/mL
IC50, pseudovirus neutralization [33]: > 50 µg/mL
IC50, pseudovirus neutralization [34]: 3.55 µg/mL
IC50, pseudovirus neutralization [35]: > 50 µg/mL
IC50, pseudovirus neutralization [36]: 7.78 µg/mL
IC50, pseudovirus neutralization [37]: > 50 µg/mL
IC50, pseudovirus neutralization [38]: > 50 µg/mL
IC50, pseudovirus neutralization [39]: > 50 µg/mL
IC50, pseudovirus neutralization [40]: > 50 µg/mL
IC50, pseudovirus neutralization [41]: > 50 µg/mL
IC50, pseudovirus neutralization [42]: 44.6 µg/mL
IC50, pseudovirus neutralization [43]: > 50 µg/mL
IC50, pseudovirus neutralization [44]: > 50 µg/mL
